Experimental findings from patent US9284543B2, “Neutral active soluble truncated PH20 polypeptides and uses thereof” (Halozyme, Inc., priority 2008, dated 2016) are described below.

One data set has as its system CHO-S cells. The data set is described as follows: Western blot analysis of PH20 expression in media and cells after transient expression. The class given is cell-based, Chinese Hamster. Conditions: media versus cells. As to the method:
The mutant PH20-HZ24 plasmids generated in Example 1 were transiently […] into CHO—S cells (derived from Chinese Hamster Ovary CHO K1 cells) using GeneJuice® (Novagen) according to the manufacturer's instructions. In short, the CHO—S cells were grown in CD CHO medium supplemented with L-glutamine. Prior to transfection, the CHO—S cells were plated in 6-well plates, with approximately 5×10^5 cells per well, and grown overnight at 37° C. with 5% CO2. The medium was then removed and the CHO—S cells were washed 2 times with 1 mL serum-free medium. GeneJuice® was mixed with serum-free media followed by the addition of 2 μg mutant-HZ24 DNA. After incubating at room temperature for 5-15 minutes, the GeneJuice®/DNA mixture was added dropwise to an individual well containing the washed CHO—S cells. After 4 hours, the medium was replaced with 1 mL CD-CHO medium supplemented with L-glutamine and the cells were incubated for 72 hours at 37° C. with 5% CO2. Following expression, the media and cells were harvested separately.
The mutant PH20-HZ24 plasmids generated in Example 1 were transiently […] into CHO—S cells using GeneJuice® (Novagen) according to the manufacturer's instructions. […]
In this example, following transient expression, as described in Example 2 above, the media and cells were harvested separately and analyzed for PH20 expression and solublility by Western blot analysis. Solubility of the C-terminus truncation mutants was determined by examining whether the expressed protein was present in the growth media or in the cells. […] Cells expressing these mutants were treated with phosphoinositol-phospholipase C (PI-PLC), which cleaves the GPI-anchor allowing the release of soluble protein into the media, and the presence of PH20 in the resulting media and cells was determined by Western blot analysis.
Non-reduced samples were run on a 4-20% Tris-Glycine gel and transferred to PVDF membrane using iBlot (Invitrogen). For the Western blot, rabbit anti-PH20 IgG (0.5 μg/mL) was used as the primary antibody and HRP-conjugated goat anti-rabbit IgG (0.1 ng/mL, Cat#DC03L, EMD) was used as the secondary antibody. Evidence of expression is determined by a band at approximately 66 kDa, corresponding to recombinant human PH20 hyaluronidase.
(In general: In western blotting, separated proteins are transferred to a membrane and probed.)

The nature of data set [1]: Microtiter hyaluronidase activity assay with biotinylated-hyaluronic acid. The class given is biochemical. Conditions: Table 6, 72 hour post transfection supernatant. The method, then:
In Example 4, the hyaluronidase activity of truncated human PH20 hyaluronidase is determined using biotinylated hyaluronic acid. The free carboxyl groups on the glucuronic acid residues of hyaluronic acid are biotinylated, and the biotinylated hyaluronic acid substrate is covalently coupled to a microtiter plate. Following incubation with hyaluronidase, the residual biotinylated hyaluronic acid substrate is detected using an avidin-peroxidase reaction, and compared to that obtained following reaction with hyaluronidase standards of known activity. […] The sensitivity permits rapid measurement of hyaluronidase activity from cultured cells and biological samples with an inter-assay variation of less than 10%.
In this example, the human PH20 hyaluronidase carboxy-terminus deletion mutants were tested for their PH20 hyaluronidase activity using a microtiter assay with biotinylated-hyaluronic acid (biotinylated-HA or bHA). The human PH20 hyaluronidase carboxy-terminus deletion mutants were tested for hyaluronidase activity at both pH 7.4 and pH 5.5.
In short, a 4×BH 96-well plate was coated with biotinylated-HA (1.1 MDa). The 72 hour post transfection supernatant from cells transfected with human PH20 hyaluronidase carboxy-terminus deletion mutants was diluted in buffer at either pH 7.4 or pH 5.5 and added to individual wells of the plate and allowed to incubate at 37° C. for 90 minutes. The reaction was terminated by addition of 4M guanidine HCl. The wells were washed 4× with Phosphate Buffered Saline with Tween20 (PBST) to remove any digested biotinylated-HA followed by addition of streptavidin-HRP for 1 hour at room temperature. The wells were washed 4× with PBST and the plate was developed with TMB. The plate was read at 450 nm using an ELISA plate reader. Hyaluronidase activity (in Units/mL) was determined by interpolating the measured absorbance at 450 nm with a hyaluronidase reference standard curve. Full length mature human PH20 hyaluronidase and untransfected CHO cells were used as positive and negative controls.

B1: SPAM1-CIDA: C-terminally truncated human PH20, precursor 467 aa (SEQ ID NO:33), mature 432 aa (SEQ ID NO:85) (protein, listed as Homo sapiens)
chain 1: MGVLKFKHIFFRSFVKSSGVSQIVFTFLLIPCCLTLNFRAPPVIPNVPFLWAWNAPSEFCLGKFDEPLDMSLFSFIGSPRINATGQGVTIFYVDRLGYYPYIDSITGVTVNGGIPQKISLQDHLDKAKKDITFYMPVDNLGMAVIDWEEWRPTWARNWKPKDVYKNRSIELVQQQNVQLSLTEATEKAKQEFEKAGKDFLVETIKLGKLLRPNHLWGYYLFPDCYNHHYKKPGYNGSCFNVEIKRNDDLSWLWNESTALYPSIYLNTQQSPVAATLYVRNRVREAIRVSKIPDAKSPLPVFAYTRIVFTDQVLKFLSQDELVYTFGETVALGASGIVIWGTLSIMRSMKSCLLLDNYMETILNPYIINVTLAAKMCSQVLCQEQGVCIRKNWNSSDYLHLNPDNFAIQLEKGGKFTVRGKPTLEDLEQFSEKFYCSCYSTLSCKEKADVKDTDAVDVCIADGVCIDA
chain 2: LNFRAPPVIPNVPFLWAWNAPSEFCLGKFDEPLDMSLFSFIGSPRINATGQGVTIFYVDRLGYYPYIDSITGVTVNGGIPQKISLQDHLDKAKKDITFYMPVDNLGMAVIDWEEWRPTWARNWKPKDVYKNRSIELVQQQNVQLSLTEATEKAKQEFEKAGKDFLVETIKLGKLLRPNHLWGYYLFPDCYNHHYKKPGYNGSCFNVEIKRNDDLSWLWNESTALYPSIYLNTQQSPVAATLYVRNRVREAIRVSKIPDAKSPLPVFAYTRIVFTDQVLKFLSQDELVYTFGETVALGASGIVIWGTLSIMRSMKSCLLLDNYMETILNPYIINVTLAAKMCSQVLCQEQGVCIRKNWNSSDYLHLNPDNFAIQLEKGGKFTVRGKPTLEDLEQFSEKFYCSCYSTLSCKEKADVKDTDAVDVCIADGVCIDA
modifications: HuPH20 precursor 1-467; Mature HuPH20 36-467
B1: the “Expressed in Media” value in the data set on CHO-S cells is listed as “YES”. For the same molecule, in data set [1], the “pH 5.5 Activity” value amounted to 0.4725 Units/ml and the “pH 7.4 Activity” value was determined as 0.5535 Units/ml.

B2: SPAM1-VCID: C-terminally truncated human PH20, precursor 466 aa (SEQ ID NO:34), mature 431 aa (SEQ ID NO:86) (protein, listed as Homo sapiens)
chain 1: MGVLKFKHIFFRSFVKSSGVSQIVFTFLLIPCCLTLNFRAPPVIPNVPFLWAWNAPSEFCLGKFDEPLDMSLFSFIGSPRINATGQGVTIFYVDRLGYYPYIDSITGVTVNGGIPQKISLQDHLDKAKKDITFYMPVDNLGMAVIDWEEWRPTWARNWKPKDVYKNRSIELVQQQNVQLSLTEATEKAKQEFEKAGKDFLVETIKLGKLLRPNHLWGYYLFPDCYNHHYKKPGYNGSCFNVEIKRNDDLSWLWNESTALYPSIYLNTQQSPVAATLYVRNRVREAIRVSKIPDAKSPLPVFAYTRIVFTDQVLKFLSQDELVYTFGETVALGASGIVIWGTLSIMRSMKSCLLLDNYMETILNPYIINVTLAAKMCSQVLCQEQGVCIRKNWNSSDYLHLNPDNFAIQLEKGGKFTVRGKPTLEDLEQFSEKFYCSCYSTLSCKEKADVKDTDAVDVCIADGVCID
chain 2: LNFRAPPVIPNVPFLWAWNAPSEFCLGKFDEPLDMSLFSFIGSPRINATGQGVTIFYVDRLGYYPYIDSITGVTVNGGIPQKISLQDHLDKAKKDITFYMPVDNLGMAVIDWEEWRPTWARNWKPKDVYKNRSIELVQQQNVQLSLTEATEKAKQEFEKAGKDFLVETIKLGKLLRPNHLWGYYLFPDCYNHHYKKPGYNGSCFNVEIKRNDDLSWLWNESTALYPSIYLNTQQSPVAATLYVRNRVREAIRVSKIPDAKSPLPVFAYTRIVFTDQVLKFLSQDELVYTFGETVALGASGIVIWGTLSIMRSMKSCLLLDNYMETILNPYIINVTLAAKMCSQVLCQEQGVCIRKNWNSSDYLHLNPDNFAIQLEKGGKFTVRGKPTLEDLEQFSEKFYCSCYSTLSCKEKADVKDTDAVDVCIADGVCID
modifications: HuPH20 precursor 1-466; Mature HuPH20 36-466
As for B2, the “Expressed in Media” value in the data set with CHO-S cells was “YES”. Besides, in data set [1], the “pH 5.5 Activity” value worked out at 0.2115 Units/ml and the “pH 7.4 Activity” value is given as 0 Units/ml.

B3: SPAM1-IDAF: C-terminally truncated human PH20, precursor 468 aa (SEQ ID NO:32), mature 433 aa (SEQ ID NO:84) (protein, listed as Homo sapiens)
chain 1: MGVLKFKHIFFRSFVKSSGVSQIVFTFLLIPCCLTLNFRAPPVIPNVPFLWAWNAPSEFCLGKFDEPLDMSLFSFIGSPRINATGQGVTIFYVDRLGYYPYIDSITGVTVNGGIPQKISLQDHLDKAKKDITFYMPVDNLGMAVIDWEEWRPTWARNWKPKDVYKNRSIELVQQQNVQLSLTEATEKAKQEFEKAGKDFLVETIKLGKLLRPNHLWGYYLFPDCYNHHYKKPGYNGSCFNVEIKRNDDLSWLWNESTALYPSIYLNTQQSPVAATLYVRNRVREAIRVSKIPDAKSPLPVFAYTRIVFTDQVLKFLSQDELVYTFGETVALGASGIVIWGTLSIMRSMKSCLLLDNYMETILNPYIINVTLAAKMCSQVLCQEQGVCIRKNWNSSDYLHLNPDNFAIQLEKGGKFTVRGKPTLEDLEQFSEKFYCSCYSTLSCKEKADVKDTDAVDVCIADGVCIDAF
chain 2: LNFRAPPVIPNVPFLWAWNAPSEFCLGKFDEPLDMSLFSFIGSPRINATGQGVTIFYVDRLGYYPYIDSITGVTVNGGIPQKISLQDHLDKAKKDITFYMPVDNLGMAVIDWEEWRPTWARNWKPKDVYKNRSIELVQQQNVQLSLTEATEKAKQEFEKAGKDFLVETIKLGKLLRPNHLWGYYLFPDCYNHHYKKPGYNGSCFNVEIKRNDDLSWLWNESTALYPSIYLNTQQSPVAATLYVRNRVREAIRVSKIPDAKSPLPVFAYTRIVFTDQVLKFLSQDELVYTFGETVALGASGIVIWGTLSIMRSMKSCLLLDNYMETILNPYIINVTLAAKMCSQVLCQEQGVCIRKNWNSSDYLHLNPDNFAIQLEKGGKFTVRGKPTLEDLEQFSEKFYCSCYSTLSCKEKADVKDTDAVDVCIADGVCIDAF
modifications: HuPH20 precursor 1-468; Mature HuPH20 36-468
B3: in the data set on CHO-S cells, the “Expressed in Media” value is given as “YES”. In data set [1], the “pH 5.5 Activity” value is on record as 0.6278 Units/ml and the “pH 7.4 Activity” value worked out at 0.5625 Units/ml.

B4: SPAM1-DAFL: C-terminally truncated human PH20, precursor 469 aa (SEQ ID NO:31), mature 434 aa (SEQ ID NO:83) (protein, listed as Homo sapiens)
chain 1: MGVLKFKHIFFRSFVKSSGVSQIVFTFLLIPCCLTLNFRAPPVIPNVPFLWAWNAPSEFCLGKFDEPLDMSLFSFIGSPRINATGQGVTIFYVDRLGYYPYIDSITGVTVNGGIPQKISLQDHLDKAKKDITFYMPVDNLGMAVIDWEEWRPTWARNWKPKDVYKNRSIELVQQQNVQLSLTEATEKAKQEFEKAGKDFLVETIKLGKLLRPNHLWGYYLFPDCYNHHYKKPGYNGSCFNVEIKRNDDLSWLWNESTALYPSIYLNTQQSPVAATLYVRNRVREAIRVSKIPDAKSPLPVFAYTRIVFTDQVLKFLSQDELVYTFGETVALGASGIVIWGTLSIMRSMKSCLLLDNYMETILNPYIINVTLAAKMCSQVLCQEQGVCIRKNWNSSDYLHLNPDNFAIQLEKGGKFTVRGKPTLEDLEQFSEKFYCSCYSTLSCKEKADVKDTDAVDVCIADGVCIDAFL
chain 2: LNFRAPPVIPNVPFLWAWNAPSEFCLGKFDEPLDMSLFSFIGSPRINATGQGVTIFYVDRLGYYPYIDSITGVTVNGGIPQKISLQDHLDKAKKDITFYMPVDNLGMAVIDWEEWRPTWARNWKPKDVYKNRSIELVQQQNVQLSLTEATEKAKQEFEKAGKDFLVETIKLGKLLRPNHLWGYYLFPDCYNHHYKKPGYNGSCFNVEIKRNDDLSWLWNESTALYPSIYLNTQQSPVAATLYVRNRVREAIRVSKIPDAKSPLPVFAYTRIVFTDQVLKFLSQDELVYTFGETVALGASGIVIWGTLSIMRSMKSCLLLDNYMETILNPYIINVTLAAKMCSQVLCQEQGVCIRKNWNSSDYLHLNPDNFAIQLEKGGKFTVRGKPTLEDLEQFSEKFYCSCYSTLSCKEKADVKDTDAVDVCIADGVCIDAFL
modifications: HuPH20 precursor 1-469; Mature HuPH20 36-469
For the molecule B4, the “Expressed in Media” value with CHO-S cells is “YES”. In data set [1], the “pH 5.5 Activity” value amounted to 2.2365 Units/ml and the “pH 7.4 Activity” value was found to be 2.3895 Units/ml.
